Test results reported in article PMC10526831, “SUPPRESSOR OF MAX2 LIKE 6, 7, and 8 Interact with DDB1 BINDING WD REPEAT DOMAIN HYPERSENSITIVE TO ABA DEFICIENT 1 to Regulate the Drought Tolerance and Target SUCROSE NONFERMENTING 1 RELATED PROTEIN K”.

T1: GST-SMXL6 (Arabidopsis thaliana, UniProt Q9LML2 1-979)
T1 sequence: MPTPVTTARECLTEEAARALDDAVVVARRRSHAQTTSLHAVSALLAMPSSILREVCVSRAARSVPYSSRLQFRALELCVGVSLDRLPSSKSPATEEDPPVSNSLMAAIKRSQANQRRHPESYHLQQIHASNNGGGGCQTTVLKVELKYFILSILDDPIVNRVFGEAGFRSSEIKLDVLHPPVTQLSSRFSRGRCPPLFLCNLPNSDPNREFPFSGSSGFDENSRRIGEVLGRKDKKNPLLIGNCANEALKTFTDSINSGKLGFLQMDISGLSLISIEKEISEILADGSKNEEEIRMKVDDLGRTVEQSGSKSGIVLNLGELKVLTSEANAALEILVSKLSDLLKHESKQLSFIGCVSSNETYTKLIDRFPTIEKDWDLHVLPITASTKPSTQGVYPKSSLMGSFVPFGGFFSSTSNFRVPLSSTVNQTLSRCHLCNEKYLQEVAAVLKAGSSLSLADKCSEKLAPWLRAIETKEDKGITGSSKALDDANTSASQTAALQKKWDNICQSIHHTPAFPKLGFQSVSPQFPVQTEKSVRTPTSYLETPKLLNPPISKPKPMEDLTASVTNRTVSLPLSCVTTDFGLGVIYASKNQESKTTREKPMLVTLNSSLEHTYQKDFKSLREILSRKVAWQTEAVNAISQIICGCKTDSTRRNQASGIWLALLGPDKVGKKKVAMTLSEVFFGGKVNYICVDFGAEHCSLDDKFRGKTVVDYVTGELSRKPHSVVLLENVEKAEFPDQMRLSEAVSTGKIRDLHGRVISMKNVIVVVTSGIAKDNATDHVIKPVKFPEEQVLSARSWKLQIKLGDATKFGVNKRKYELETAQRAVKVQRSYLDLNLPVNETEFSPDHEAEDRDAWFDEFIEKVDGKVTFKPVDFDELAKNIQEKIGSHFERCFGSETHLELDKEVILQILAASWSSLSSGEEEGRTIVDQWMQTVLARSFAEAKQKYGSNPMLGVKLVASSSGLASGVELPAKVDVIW

T2: GST-SMXL8 (Arabidopsis thaliana, UniProt F4IGZ2 1-910)
T2 sequence: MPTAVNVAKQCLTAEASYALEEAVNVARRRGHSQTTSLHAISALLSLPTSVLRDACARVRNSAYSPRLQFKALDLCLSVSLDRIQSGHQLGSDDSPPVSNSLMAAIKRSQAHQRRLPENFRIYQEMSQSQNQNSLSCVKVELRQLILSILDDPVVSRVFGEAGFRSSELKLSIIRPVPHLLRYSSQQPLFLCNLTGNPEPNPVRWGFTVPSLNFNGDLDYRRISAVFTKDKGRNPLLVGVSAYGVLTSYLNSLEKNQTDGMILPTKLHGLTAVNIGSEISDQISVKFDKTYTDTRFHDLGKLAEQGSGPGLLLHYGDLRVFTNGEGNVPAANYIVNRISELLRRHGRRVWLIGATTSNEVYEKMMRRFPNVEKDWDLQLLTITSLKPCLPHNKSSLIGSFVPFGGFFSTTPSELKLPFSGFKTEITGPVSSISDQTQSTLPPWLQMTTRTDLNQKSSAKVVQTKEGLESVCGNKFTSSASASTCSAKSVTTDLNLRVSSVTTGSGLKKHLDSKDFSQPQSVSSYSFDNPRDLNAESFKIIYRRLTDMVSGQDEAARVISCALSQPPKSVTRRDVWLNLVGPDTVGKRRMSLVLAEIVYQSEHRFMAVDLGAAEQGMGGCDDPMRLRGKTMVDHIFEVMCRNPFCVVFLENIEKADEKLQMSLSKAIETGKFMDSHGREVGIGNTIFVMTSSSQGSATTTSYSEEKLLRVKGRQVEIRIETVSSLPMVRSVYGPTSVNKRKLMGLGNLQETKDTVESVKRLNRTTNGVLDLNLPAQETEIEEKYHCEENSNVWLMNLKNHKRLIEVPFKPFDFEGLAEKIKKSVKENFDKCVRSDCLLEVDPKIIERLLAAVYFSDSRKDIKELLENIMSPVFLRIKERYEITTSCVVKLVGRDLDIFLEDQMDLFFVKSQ

T3: GST-SMXL7 (Arabidopsis thaliana, UniProt O80875 1-1002)
T3 sequence: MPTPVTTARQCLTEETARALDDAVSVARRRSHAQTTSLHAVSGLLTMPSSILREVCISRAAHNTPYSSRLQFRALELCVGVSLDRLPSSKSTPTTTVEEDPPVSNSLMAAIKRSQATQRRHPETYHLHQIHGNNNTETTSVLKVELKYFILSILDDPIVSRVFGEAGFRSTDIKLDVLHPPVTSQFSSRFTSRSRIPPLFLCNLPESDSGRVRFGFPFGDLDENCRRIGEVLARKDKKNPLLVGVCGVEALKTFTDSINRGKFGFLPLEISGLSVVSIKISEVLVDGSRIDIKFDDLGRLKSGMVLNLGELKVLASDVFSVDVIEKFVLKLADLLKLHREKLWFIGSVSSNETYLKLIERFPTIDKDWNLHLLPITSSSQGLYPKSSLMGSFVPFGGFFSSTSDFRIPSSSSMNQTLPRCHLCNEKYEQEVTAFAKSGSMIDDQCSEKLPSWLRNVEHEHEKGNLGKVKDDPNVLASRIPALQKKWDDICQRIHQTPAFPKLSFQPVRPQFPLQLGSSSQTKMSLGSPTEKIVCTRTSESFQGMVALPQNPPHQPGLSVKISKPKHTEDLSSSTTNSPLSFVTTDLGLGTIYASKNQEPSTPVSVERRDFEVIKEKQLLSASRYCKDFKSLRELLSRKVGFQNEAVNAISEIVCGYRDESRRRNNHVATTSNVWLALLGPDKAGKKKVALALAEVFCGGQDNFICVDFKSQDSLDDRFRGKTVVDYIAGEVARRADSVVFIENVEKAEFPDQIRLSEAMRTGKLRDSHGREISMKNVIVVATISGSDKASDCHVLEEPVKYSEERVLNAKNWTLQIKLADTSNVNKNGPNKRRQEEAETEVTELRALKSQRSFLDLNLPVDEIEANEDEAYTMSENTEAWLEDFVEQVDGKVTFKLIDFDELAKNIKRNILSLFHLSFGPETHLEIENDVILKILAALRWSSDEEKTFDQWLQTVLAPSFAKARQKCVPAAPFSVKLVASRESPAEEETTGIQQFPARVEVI

B1: SnRK2.6 promoter p2.6-3-1-1-a (dsDNA)
DNA 1: GACATTTGTGGTAACTTGTTTTTCTTTTATTTTCCGTTTTTAAATGCGGAAACCCTT
DNA 2: AAGGGTTTCCGCATTTAAAAACGGAAAATAAAAGAAAAACAAGTTACCACAAATGTC
B2: SnRK2.3 promoter p2.3-3-1-2-a (dsDNA)
DNA 1: CTTGGGGCAACCAATTATTGCCTTTTTTCTTCCTCTCTTTCCTTATTCGTT
DNA 2: AACGAATAAGGAAAGAGAGGAAGAAAAAAGGCAATAATTGGTTGCCCCAAG

Legend:
Test in all cases: EMSA; 25x unlabeled probe as competitor; 1 ug protein, 20 uL reaction, room temperature 30 min; 6% native PAGE in 0.5x TBE; binding buffer, salt and pH not given
Details in all cases: protein: recombinant; tags: N-terminal GST (pGEX-6P-1); label: biotin; blunt
GST-SMXL6 = molecular target: T1, GST-SMXL6
GST-SMXL8 = molecular target: T2, GST-SMXL8
GST-SMXL7 = molecular target: T3, GST-SMXL7

Row | Binder | binding result (GST-SMXL6) | binding result (GST-SMXL8) | binding result (GST-SMXL7)
1 | B1 | binds | binds | 
2 | B2 | binds | binds | binds
